Laboratory results: IntAct's records for PubMed 27189942

B1: EH domain-containing protein 3 (Homo sapiens), Q9NZN3 (parent)
chain: MFSWLGTDDRRRKDPEVFQTVSEGLKKLYKSKLLPLEEHYRFHEFHSPALEDADFDNKPMVLLVGQYSTGKTTFIRYLLEQDFPGMRIGPEPTTDSFIAVMQGDMEGIIPGNALVVDPKKPFRKLNAFGNAFLNRFVCAQLPNPVLESISVIDTPGILSGEKQRISRGYDFAAVLEWFAERVDRIILLFDAHKLDISDEFSEVIKALKNHEDKMRVVLNKADQIETQQLMRVYGALMWSLGKIVNTPEVIRVYIGSFWSHPLLIPDNRKLFEAEEQDLFRDIQSLPRNAALRKLNDLIKRARLAKVHAYIISSLKKEMPSVFGKDNKKKELVNNLAEIYGRIEREHQISPGDFPNLKRMQDQLQAQDFSKFQPLKSKLLEVVDDMLAHDIAQLMVLVRQEESQRPIQMVKGGAFEGTLHGPFGHGYGEGAGEGIDDAEWVVARDKPMYDEIFYTLSPVDGKITGANAKKEMVRSKLPNSVLGKIWKLADIDKDGMLDDDEFALANHLIKVKLEGHELPNELPAHLLPPSKRKVAE
partner: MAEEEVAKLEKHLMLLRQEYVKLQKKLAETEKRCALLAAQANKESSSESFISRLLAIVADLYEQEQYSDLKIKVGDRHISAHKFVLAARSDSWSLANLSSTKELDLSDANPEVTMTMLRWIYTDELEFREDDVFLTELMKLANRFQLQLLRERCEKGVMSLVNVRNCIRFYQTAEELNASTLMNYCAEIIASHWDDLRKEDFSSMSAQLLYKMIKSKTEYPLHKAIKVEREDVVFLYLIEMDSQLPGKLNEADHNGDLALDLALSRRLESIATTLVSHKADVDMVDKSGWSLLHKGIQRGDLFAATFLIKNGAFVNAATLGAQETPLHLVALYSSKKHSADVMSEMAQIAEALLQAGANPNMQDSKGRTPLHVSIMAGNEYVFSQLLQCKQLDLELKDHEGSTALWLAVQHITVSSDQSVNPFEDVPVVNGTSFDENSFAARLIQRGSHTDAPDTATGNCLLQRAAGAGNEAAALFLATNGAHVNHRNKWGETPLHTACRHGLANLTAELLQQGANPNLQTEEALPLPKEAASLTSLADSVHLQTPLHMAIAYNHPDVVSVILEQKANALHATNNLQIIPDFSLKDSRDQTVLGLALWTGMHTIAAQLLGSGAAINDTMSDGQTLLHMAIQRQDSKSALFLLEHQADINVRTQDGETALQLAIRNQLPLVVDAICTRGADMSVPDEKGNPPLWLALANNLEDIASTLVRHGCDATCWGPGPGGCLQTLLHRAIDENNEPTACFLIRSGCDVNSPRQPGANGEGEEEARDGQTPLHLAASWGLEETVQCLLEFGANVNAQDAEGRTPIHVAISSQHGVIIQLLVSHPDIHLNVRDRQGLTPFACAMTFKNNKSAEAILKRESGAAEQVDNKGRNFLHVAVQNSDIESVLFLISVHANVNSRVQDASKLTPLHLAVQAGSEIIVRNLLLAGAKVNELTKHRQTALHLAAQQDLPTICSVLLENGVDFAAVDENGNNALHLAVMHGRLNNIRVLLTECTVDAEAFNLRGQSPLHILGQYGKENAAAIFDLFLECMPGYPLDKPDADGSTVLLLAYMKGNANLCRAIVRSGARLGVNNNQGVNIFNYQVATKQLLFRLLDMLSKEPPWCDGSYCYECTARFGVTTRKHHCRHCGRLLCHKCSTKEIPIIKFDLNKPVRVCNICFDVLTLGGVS
B2: MICAL-like protein 1 (Homo sapiens), Q8N3F8 (parent)
chain: MAGPRGALLAWCRRQCEGYRGVEIRDLSSSFRDGLAFCAILHRHRPDLLDFDSLSKDNVFENNRLAFEVAEKELGIPALLDPNDMVSMSVPDCLSIMTYVSQYYNHFCSPGQAGVSPPRKGLAPCSPPSVAPTPVEPEDVAQGEELSSGSLSEQGTGQTPSSTCAACQQHVHLVQRYLADGRLYHRHCFRCRRCSSTLLPGAYENGPEEGTFVCAEHCARLGPGTRSGTRPGPFSQPKQQHQQQLAEDAKDVPGGGPSSSAPAGAEADGPKASPEARPQIPTKPRVPGKLQELASPPAGRPTPAPRKASESTTPAPPTPRPRSSLQQENLVEQAGSSSLVNGRLHELPVPKPRGTPKPSEGTPAPRKDPPWITLVQAEPKKKPAPLPPSSSPGPPSQDSRQVENGGTEEVAQPSPTASLESKPYNPFEEEEEDKEEEAPAAPSLATSPALGHPESTPKSLHPWYGITPTSSPKTKKRPAPRAPSASPLALHASRLSHSEPPSATPSPALSVESLSSESASQTAGAELLEPPAVPKSSSEPAVHAPGTPGNPVSLSTNSSLASSGELVEPRVEQMPQASPGLAPRTRGSSGPQPAKPCSGATPTPLLLVGDRSPVPSPGSSSPQLQVKSSCKENPFNRKPSPAASPATKKATKGSKPVRPPAPGHGFPLIKRKVQADQYIPEEDIHGEMDTIERRLDALEHRGVLLEEKLRGGLNEGREDDMLVDWFKLIHEKHLLVRRESELIYVFKQQNLEQRQADVEYELRCLLNKPEKDWTEEDRAREKVLMQELVTLIEQRNAIINCLDEDRQREEEEDKMLEAMIKKKEFQREAEPEGKKKGKFKTMKMLKLLGNKRDAKSKSPRDKS
partner: B1 chain
B3: Rabankyrin-5 (Homo sapiens), Q9P2R3 (parent)
chain: B1 partner
partner: B1 chain
B4: MICAL-like protein 1 (Homo sapiens), Q8N3F8 (parent)
chain: B2 chain
partner: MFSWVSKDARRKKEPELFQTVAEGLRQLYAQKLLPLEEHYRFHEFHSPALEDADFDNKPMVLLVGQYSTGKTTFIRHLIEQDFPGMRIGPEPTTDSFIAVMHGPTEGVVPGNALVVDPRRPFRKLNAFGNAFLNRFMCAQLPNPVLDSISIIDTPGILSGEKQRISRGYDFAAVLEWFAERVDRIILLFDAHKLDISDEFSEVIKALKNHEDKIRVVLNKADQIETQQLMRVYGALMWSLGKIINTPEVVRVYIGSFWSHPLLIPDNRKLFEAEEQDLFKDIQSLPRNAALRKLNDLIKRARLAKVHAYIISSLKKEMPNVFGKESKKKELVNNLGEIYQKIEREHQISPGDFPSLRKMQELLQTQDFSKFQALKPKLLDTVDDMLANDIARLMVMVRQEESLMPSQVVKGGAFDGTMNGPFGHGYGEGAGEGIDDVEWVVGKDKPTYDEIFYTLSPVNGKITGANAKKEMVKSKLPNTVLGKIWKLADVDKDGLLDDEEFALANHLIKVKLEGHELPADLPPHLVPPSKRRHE
B5: Rabankyrin-5 (Homo sapiens), Q9P2R3 (parent)
chain: B1 partner
partner: B4 partner

Variants of: B1
Conditions: with anfy1_human ANKFY1, Q9P2R3

| effect of a mutation on the interaction | Variant |
| --- | --- |
| causing an interaction | N519A |
| causing an interaction | E520D |

Variants of: B1
Conditions: with anfy1_human ANKFY1, Q9P2R3
Remark: another data set of the same source

| effect of a mutation on the interaction | Variant |
| --- | --- |
| causing an interaction | N519A;E520D |

Variants of: B2
Conditions: with ehd3_human EHD3, Q9NZN3

| effect of a mutation on the interaction | Variant |
| --- | --- |
| disrupting interaction | E428A;E429A;E430A;E431A;E432A;D433A |

Variants of: B3
Conditions: with ehd3_human EHD3, Q9NZN3

| effect of a mutation on the interaction | Variant |
| --- | --- |
| causing an interaction | V420Y |
| causing an interaction | V420A |
| causing an interaction | Q418K |
| causing an interaction | Q418K;S419P;V420Y |

Variants of: B4
Conditions: with ehd1_human EHD1, Q9H4M9

| effect of a mutation on the interaction | Variant |
| --- | --- |
| decreasing interaction | E429A;E430A;E431A;E432A;D433A |
| disrupting interaction | E428A;E429A;E430A;E431A;E432A;D433A |

Variants of: B5
Conditions: with ehd1_human EHD1, Q9H4M9

| effect of a mutation on the interaction | Variant |
| --- | --- |
| disrupting interaction | S419P |
